± gives the uncertainty stated by the source.

The nature of this data set: self-splicing fitness, log relative to wild type (ln ratio); higher = more splicing; Tetrahymena group I intron in knt gene, E. coli kanamycin selection, DiMSum; sequences stand for … in CUCUCU…GGAGGGAAAAGUUAUCAGGCAUGCACCUGGUAGCUAGUCUUUAAACCAAUAGAUUGCAUCGGUUUAAAAGGCAAGACCGUCAAAUUGCGGGAAAGGGGUCAACAGCCGUUCAGUACCAAGUCUCAGGGGAAACUUUGAGAUGGCCUUGCAAAGGGUAUGGUAAUAAGCUGACGGACAUGGUCCUAACCACGCAGCCAAGUCCUAAGUCAACAGAUCUUCUGUUGAUAUGGAUGCAGUUCACAGACUAAAUGUCGGUCGGGGAAGAUGUAUUCUUCUCAUAAGAUAUAGUCGGACCUCUCCUUAAUGGGAGCUAGCGGAUGAAGUGAUGCAACACUGGAGCCGCUGGGAACUAAUUUGUAUGCGAAAGUAUAUUGAUUAGUUUUGGAGUACUCGUGGUCG
In short, it runs like this: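 A randomised library covering all eight P1ex-region intron nucleotides was built with the intron in the knt kanamycin-resistance gene on pET-22b(+) and held in E. coli BL21(DE3). Cells were grown overnight at 37°C or 30°C on LB agar, with or without 25 μg/mL kanamycin, plus 100 μg/mL carbenicillin, 50 μM IPTG and 0.2% rhamnose, and pooled colonies were amplicon-sequenced on an Illumina HiSeq 2500. DiMSum fitness is the error-weighted combination of wild-type-normalised replicate fold changes, kanamycin versus none.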

For UAAUAGCAAUAUUACGCGGC, the “self-splicing fitness (ln)” value (30 °C) was -2.97 ± 0.36 and the “self-splicing fitness (ln)” value (37 °C) was -2.34 ± 0.37.
For GCAGAGCAAUAUUACGAGAA, for the setting “37 °C”, the “self-splicing fitness (ln)” value was -1.96 ± 0.32.
Take GAUAAGCAAUAUUACGCUCG: the “self-splicing fitness (ln)” value is -0.655 ± 0.15 (30 °C) and 0.0364 ± 0.17 (37 °C).
With UAUCAGCAAUAUUACGGAAA, the “self-splicing fitness (ln)” value (30 °C) is -0.825 ± 0.11 and the “self-splicing fitness (ln)” value (37 °C) is -0.253 ± 0.12.
Consider ACCAAGCAAUAUUACGAUUA, for which the “self-splicing fitness (ln)” value was -2.23 ± 0.11 (30 °C) and -1.03 ± 0.085 (37 °C).
As to GAGCAGCAAUAUUACGGUUU, the “self-splicing fitness (ln)” value was -3.11 ± 0.17 (30 °C) and -1.84 ± 0.19 (37 °C).
Take UUGCAGCAAUAUUACGACAG: the “self-splicing fitness (ln)” value (30 °C) is -0.32 ± 0.11 and the “self-splicing fitness (ln)” value (37 °C) is 0.414 ± 0.15.
As to UUACAGCAAUAUUACGUUCG, the “self-splicing fitness (ln)” value is, setting by setting: (30 °C) -0.549 ± 0.061; (37 °C) -0.234 ± 0.091.
Take UUUGAGCAAUAUUACGAAAG: the “self-splicing fitness (ln)” value (37 °C) was -2.49 ± 0.23.
CAAUAGCAAUAUUACGGGGG: the “self-splicing fitness (ln)” value is -2.64 ± 0.19 (30 °C) and -2.01 ± 0.15 (37 °C).
For the sequence CAUGAGCAAUAUUACGCAGA, the “self-splicing fitness (ln)” value (30 °C) is -4.53 ± 0.32 and the “self-splicing fitness (ln)” value (37 °C) is -1.69 ± 0.15.
For the sequence CUGUAGCAAUAUUACGGAUC, the “self-splicing fitness (ln)” value is, setting by setting: (30 °C) -3.93 ± 0.3; (37 °C) -3.45 ± 0.39.
For the sequence GCAAAGCAAUAUUACGUUGA, the “self-splicing fitness (ln)” value was -1.67 ± 0.088 (30 °C) and -1.03 ± 0.094 (37 °C).
As to UGCCAGCAAUAUUACGCCGG, the “self-splicing fitness (ln)” value runs as follows: (30 °C) -4.03 ± 0.21; (37 °C) -3.05 ± 0.25.
On to CAGCAGCAAUAUUACGCAGC, for which the “self-splicing fitness (ln)” value (30 °C) is -4.33 ± 0.32 and the “self-splicing fitness (ln)” value (37 °C) is -2.3 ± 0.28.
Regarding CACCAGCAAUAUUACGGGAU, the “self-splicing fitness (ln)” value (30 °C) was -3.34 ± 0.076 and the “self-splicing fitness (ln)” value (37 °C) was -1.9 ± 0.076.
With GAUGAGCAAUAUUACGGUCC, the “self-splicing fitness (ln)” value is -3.29 ± 0.2 (30 °C) and -2.27 ± 0.36 (37 °C).
In the case of CGGCAGCAAUAUUACGUGCU, the “self-splicing fitness (ln)” value by setting is: (30 °C) -3 ± 0.14; (37 °C) -1.63 ± 0.16.
In the case of ACAAAGCAAUAUUACGUCGG, the “self-splicing fitness (ln)” value reads like this: (30 °C) -2.14 ± 0.11; (37 °C) -0.989 ± 0.12.
AUAAAGCAAUAUUACGUGGG: the “self-splicing fitness (ln)” value is -2.92 ± 0.095 (30 °C) and -3.02 ± 0.15 (37 °C).
On to CGCAAGCAAUAUUACGACAA, for which the “self-splicing fitness (ln)” value (30 °C) is -2.37 ± 0.17 and the “self-splicing fitness (ln)” value (37 °C) was -1.51 ± 0.16.
Take GCGAAGCAAUAUUACGUGUC: the “self-splicing fitness (ln)” value (30 °C) was -4.67 ± 0.46 and the “self-splicing fitness (ln)” value (37 °C) is -3.21 ± 0.33.
On to AUUGAGCAAUAUUACGAUAC, for which the “self-splicing fitness (ln)” value reads like this: (30 °C) -3.01 ± 0.42; (37 °C) -1.65 ± 0.34.
On to UACAAGCAAUAUUACGAAUC, for which the “self-splicing fitness (ln)” value (30 °C) is -3.62 ± 0.17 and the “self-splicing fitness (ln)” value (37 °C) is -2.7 ± 0.22.
On to CGGCAGCAAUAUUACGAACC, for which the “self-splicing fitness (ln)” value by setting is: (30 °C) -0.757 ± 0.33; (37 °C) -0.368 ± 0.37.
For CAAUAGCAAUAUUACGGUAU the same measures were -3.15 ± 0.15 and -2.42 ± 0.21.
In the case of CGACAGCAAUAUUACGCCCG, the “self-splicing fitness (ln)” value (30 °C) turned out to be 0.138 ± 0.24.
With UCCGAGCAAUAUUACGACGG, the “self-splicing fitness (ln)” value is -1.46 ± 0.11 (30 °C) and -0.111 ± 0.17 (37 °C).
With GGGGAGCAAUAUUACGACAC, the “self-splicing fitness (ln)” value is, setting by setting: (30 °C) -0.721 ± 0.14; (37 °C) -0.843 ± 0.24.
As to CGAGAGCAAUAUUACGUUAG, the “self-splicing fitness (ln)” value runs as follows: (30 °C) -4.23 ± 0.36; (37 °C) -2.24 ± 0.29.
The matching figures for CCGUAGCAAUAUUACGUCCA: -2.27 ± 0.28 and -3.26 ± 0.28.
In the case of AGCUAGCAAUAUUACGAGCU, the “self-splicing fitness (ln)” value is, setting by setting: (30 °C) -2.65 ± 0.19; (37 °C) -1.92 ± 0.21.
As for CGUGAGCAAUAUUACGAACA, the “self-splicing fitness (ln)” value is -0.649 ± 0.15 (30 °C) and -0.766 ± 0.17 (37 °C).
The matching figures for CUUCAGCAAUAUUACGAGGA: -2.73 ± 0.26 and -1.64 ± 0.24.
Turning to ACACAGCAAUAUUACGGUGC, the “self-splicing fitness (ln)” value reads like this: (30 °C) -3.91 ± 0.16; (37 °C) -2.61 ± 0.14.
As for CCGUAGCAAUAUUACGCGUU, the “self-splicing fitness (ln)” value runs as follows: (30 °C) -4.15 ± 0.39; (37 °C) -2.86 ± 0.31.
For UGGGAGCAAUAUUACGGCUA, the “self-splicing fitness (ln)” value by setting is: (30 °C) -0.66 ± 0.21; (37 °C) -0.59 ± 0.15.
The matching figures for GUUUAGCAAUAUUACGUUCA: -0.239 ± 0.15 and -0.156 ± 0.13.

Source of the values: the supplement of paper PMC7877785.
